{"source": "paper PMC5589264", "about": "“Reversible unfolding of infectious prion assemblies reveals the existence of an oligomeric elementary brick” (PLoS Pathogens, 2017)", "target": "the molecule itself", "experiment": "SEC"}
{"protein": "prion protein (PrP) from 263K-infected Syrian hamster brain (natural protein, also called PrP^Sc; 263K PrP^Sc) not shown", "values": [{"measurement": "stoichiometry N", "value": "~3"}]}
